Measured values published in the nanobody polyreactivity screen of Harvey et al. (2022).

Assay: yeast display, Sf9 membrane polyspecificity reagent, FACS + sequencing; frameworks hold sequencing errors
Method in brief: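 Synthetic nanobody libraries on Saccharomyces cerevisiae BJ5465 were galactose-induced for 36–48 hours, stained 1 hour at 4 °C with 10% biotinylated, detergent-solubilized Sf9 membrane reagent and enriched on streptavidin microbeads. FACS then separated cells into low and high (top ~1%) gates by anti-HA (expression) and streptavidin (reagent binding) fluorescence. Genes were colony-PCR amplified, MiSeq 2 × 250 sequenced and CDR-length filtered. A clone's polyreactivity label is that of its gate of origin.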

Row | Sequence | polyreactivity (PSR sort gate)
1 | QVQLVESGGGLDQAGGSLRLSWAASGSIFTIYAMGWYRQAPGKERELVAAISRRGGSTYYADSVKGRFTISRDNSKNTVYLQMNSLKPEDTAVYYCNADVAPGIFYGYDCWGQGTQVTVSS | low polyreactivity
2 | QVQLVESGGGLVQAGGILRLSCAASGRIIRSYAMGWYRHAPGKERELVAAITSGGSTNYADSVKGRFTISRDNANNTVYLQMNSLKPEDTAVYYCAARWPWYGKLRYYYWGQGTQVTVSS | high polyreactivity
3 | QVQLVESGGGLDQARGSLRLSCAASGITFHPNAMGWYRQAPGKERELVAAISGRRSRTYYADSVKGRFIISRDNAKNTVYLLLNSLKPEDTAVYYCAKDHPSGRQYDYWGQGTQVTVSS | high polyreactivity
4 | QVQLVESGGGLVQAGGSLRLSCAAYGFIFTRYAMGWSRQAPGKERELVAAISSSGGSTSYADSVKGRFTISRDNAKNTVYFQMNSLKPEDTAVYYCAARGYRLARYRSYDYWGQGTQVTVSS | high polyreactivity
5 | QVQLVESGGGLVQAGGSLRLSCAASGRIFGYYAMGWYRQAPGKERELVADITESGTSTYYADSVKGRFTISRDNAKNTVYLQMNSLKPEDTAVYYCAAGYWWRYALYGYWGQGTQVTVSS | low polyreactivity
6 | QVQLVESGGGLVQAGGSLRLSCPASGLTFQRYAMGWYRQAPGKERELVAAITVGGGRTYYADSVKGRFTISRDNAKNTVYLQMNSLKPEDTAVYYCAADSHASTYDYWGQGTQVTVSS | low polyreactivity
7 | QVQLVESGGGLVQAGGSLRLSCAASGRTFYAYDMGWYRQAPGKERELVAAINSGDRTNYADSVKGRFTISRDNAKNTDYLQMNSLKPEDTAVYYCAADWYTPQGVGLDYWGQGTQVTVSS | low polyreactivity
8 | QVQLVESGGGLVQAGGSLRLSCAASGSTFKRYAMGWYRQAPGKERELVAAITRGGGSTYYADSVKGRFTISRDNAKNTVYLQMNSLKPEDTAVYYCNKGYRDYFTAYLSRYYWGQGTQVTVSS | high polyreactivity
9 | QVQLVESGAGLVQAGGSLRLSCAASGFTFYRYAMGWYRQAPGKEREFLAAITASGGSTNYADSVKGRFTISRDNAKNTVYLQMNSLKPEDTAVYYCAARQSRDFRYRGFYYWGQGTQVTVSS | high polyreactivity
10 | QVQLVESGGGLVQAGGSLRLSCAASGRIFAVNAMGWYRQAPGKERELVATINSGGNTNYADSVKGRFTISRDNAKNTVYLQMNSLKPVDTAVYYCAARAFSAWLEMDYWGQGTQVTVSS | low polyreactivity
11 | QVQLVESGGGLVQAGGSLRLSCAASGSIFVFYAMGWYRQAPGKERELVATISSAGSTYYADSVKGRFTISRDNAKNTVYLQMNSLKPEDTAVYYCARGYIPSYWWYHSDRGDYWGQGTQVTVSS | low polyreactivity
12 | QVQLVESGGGLVQAGGSLRLSCAASGRIYWNTKGWYRQAPGKERELVASISTGGGRTYYADSVKGRFTISRDNAKNTVYLQMNSLKPEDTAVYYCAARRGAGYSRFNYWGQGTQVTVSS | high polyreactivity
13 | QVQLVESGGGLVQAGGSLRLSCAASGFSFRQYAMGWYRQAPGKERELVAAISRSGSRTYYADSVKGRFTLSRDNAKNTGYLQMNSLKAEDTAVYYCNAVFSTFTGEYYWGQGTQVTVSS | high polyreactivity
14 | QVQLVESGGGLVQAGGSLRLSCAASGSIFGSNAMGWYRQAPGKERELVAAISVRDGSTSYADSVKGRFTISRDNAKNTVYLQMNSLKPEDPAVYYCTAKSLAERYYRPEMDYWGQGTQVTVSS | low polyreactivity
15 | QVQLQESGGGLVQAGGSLRLSCAASGSITRYYDMGWYRQAPGKEREFVAGISGGAITYYADSVKGRFTISRDNAKNTVYLQMNSLKPEDTAVYYCAADTGVYQYHSYWGQGTQVTVSS | low polyreactivity
16 | QVQLVESGGGLVQAGGSLRLSCAASGITFYYTMGWYRQAPGKERELVATISYDGTSTYYADSVKGRFTISRHNEKNTVYLHMNSLKPEDTAVYYSSAYGTVVTLNDYWGQGTQVTVSS | low polyreactivity
17 | QVQLVESGGGLVQAGGSLRLSCAASGFTFNCNAMGWYRQAPGKERELVAAIRSSGGSTYYADSVKGRFTISRDNAKYTVYLQMNSLKPEDTAVYYCAARRSNLYYGGTRYWYYYWGQGTQVTVSS | high polyreactivity
18 | QVQLVESGGGLVQAGGSLRLSCAASGFIFWLNAMGWYRQAPGKERELVAAISIGGRTNYADSVKGRFTISRDNAKNTVYLQMNSLKPEDTAVYYCNKDYRSVYKGRGFDYWGQGTQVTVSS | low polyreactivity
19 | QVQLVESGGGLVQAGGSLRLSCAASGSTFSDNAMGWYRQAPGKERELVAAINETGGSTYYADSVKGRFTISRDNAKNTVYLQMNSLKPEDTAVYYCNADIDPYGATYAIEYDYWGQGTQVTVSS | low polyreactivity
20 | QVQLVESGGGLVQAGGSLRLSCAASGSTFYRYAMGWYRQAPGKERELVAAITSAGSTNYADSVKGRFTISRDNAKNTVYLQMNSLKPEDTAVYYCAADHGRPYFSYDYWGQGTQVTVSS | low polyreactivity
21 | QVQLVESAGGLVQAGVSLRLSCAASGFTFGWYAMGWYRQAPGKERELVATISWSGSSTYYADSVKGRFTISRDNAKNTVYVQMNSLKPDDTAVYYCNAVYGRFVVLRYDYWGQGTQVTVSS | high polyreactivity
22 | QVQLVESGGGLVQAGGSLRLSCAASGSTFHHYAMGWYRQAPGKERELVAAITTSGGRTYYADSVKGRFTISRDNAKNTVYLQMNSLKPEDTAVYYCAADRFFYRGGYYYWGQGTQVTVSS | high polyreactivity

Row | Sequence | polyreactivity (PSR sort gate)
23 | QVQLVESGGGLVQAGGSLRLSCAASGRTFAPYAMGWSRQAPGKEREFVAGITWSSSSTYADSVKGRFTISRDNAKNTVYLQMNSLKPEDTAVYYCAARHAKGGNRHYYWGQGTQVTVSS | high polyreactivity
24 | QVQLVESGGGLVQAGGSLPLSCAASGRTFGENAMGWYRQAPGKERELVAAITSGARTYYADSVKGRFTISRDNAKNTVYLQMNSLKPEDTAVYYCAKAYRRFSGGAGKQGGYYWGQGTQVTVSS | high polyreactivity
25 | QVQLVESGGGLVQAGGSLRLSCAASGSIFVDNDMGWYRPAPGKERELVAAIRSSGTSTYYADSVKGRFTISRDNAKNTVYLQMNSLKPEDTAVYYCATRYPRRHVYPKPYYYWGQGTQVTVSS | low polyreactivity
26 | RVQLPESGGGLVQAGGSLRLTCAASGTIFIRGDMGWYRQSPGKEREFVATIDTGSNTYYADSEKGRFTISRDNAKNAVYLQMNCLKPGDTAVYYCVVDYQLSGRLRYWGQGTQVTLSS | low polyreactivity
27 | QVQLVESGGGLVQAGGSLRLSCAASGRIFGYNAMGWYRQAPGKERELVDAITTSGGSTYYADSVKGRFTISRDNAKNTVYLQMNSLKPEDTAVYYCARDSLQVFYPYASDDYWGQGTQVTVSS | low polyreactivity
28 | QLQLVESGGGLVQAGGSLRLSCAASGRIFKEYAMGWYRQAPGQERELVAAISWRGGSTYYADSVKGRFTISRDNAKNTVNLQMNSLKPEDTAVYYCARVVSRNTHPYYHWGQVTQVTVSS | low polyreactivity
29 | QVQLVESVVGLVQSRVRHPLSCSASGIIFAQNAMGWYRQAPGKERELVARITSSGGGTNYADSVKGRFTISRDNAKNTVYLQMNSLKPEDTAVYYCATRWPYRSDWGQGTQVTVSS | high polyreactivity
30 | QVQLVESGGGLVQAGGSLRLSCAAYGSTFEYYVMGWYRQAPGKERELVAAISGSGGGTYYADSVKGRFTISRDNAKNTVSLQMNSLKPEDTAVYYCAAVATLEKYDYWGQGNQVTVSS | low polyreactivity
31 | QVQLVESGGGLVQAGGSLRLSCAASGRIFGYNAMGWYRHAPGTERELVAAITNGGSTNYADSVKGRFTISRDNAKNTVYLQMNSLKPEDTAVYYCAADRGGLRWFWQVLYDYWGQGTQVTVSS | low polyreactivity
32 | QVQLVESGGGLVQAGGSLRLSCAASGRTFVPYVMGWYRQAPGKESELVASITSGGSTYYADSVKGRFTISRDNAKNTVYLQMNSLKPEDTAVYYCATRQSAERWGYYYWGQGTQVTVSS | low polyreactivity
33 | QVQLVESGGGLVQAGGSLRLSCAASGITIDYYAMGWYRQAPGKERELVAAISSVGNTNYADSVKGRFTISRDNAKNTVYLQMNSLKPEDTAVYYCAARAYGQRLYRVWSGYGYWGQGTQVTVSS | high polyreactivity
34 | QVHLVESGGGLVQAGGSLRLSCAASGGIFLDNAMGWYRQAPGKERELVASIRTRTYYADSVKGRFTISRDNAKNTVYLQMNSLKPEDTAVYYCAAAHRRWDGDYNYWGQGTQVTVSS | high polyreactivity
35 | QVQLVESGGGLVQAGGSLRLSCAASGSTFSRYTMGWYRQAPGKERELVAVITRRGGSTYYADSVKGRFTISRDNAKNTVYLQMNSLKPADTAVYYCAADYKYPIDYGYWGQGTQVTVSS | high polyreactivity
36 | QVQLVETGAGIVQAGGILRLSCAASGSIFQGNAIGWYRQAPGKERELVAAISGGTSTYYADSEKGRFTISRDNAKNTVYLEMNSLKPEDTAVYYCAARFYGHPYWYDYWGLGTQVTVSS | low polyreactivity
37 | QVQLVESGGGLVQAGGSLRLSCAASGLTFRTYTMGWYRQAPGKERELVAAISSSGSTKYADSVKGRFTISRDNAKNTVYLQMICLKPEDTAVYYCAARGRIYFTQYGYWGQVTQVTVSS | high polyreactivity
38 | QVQLVESGGGLVQAGGSLRLSCAASGSTDRYYVMGWYRQAPGKERDLVAGISYRGGTTYYADSVKGRFTISRDNAKNTVYLQMNRLKPEDTAVYYCNAETAAAQASYDRLYVLLDYWGQGTQVTVSS | low polyreactivity
39 | QVQLEESGGGLVQAGGSLRLSCASSGSTFPYNAMGWYRQAPGKERELVAANTSGASTNYADSVKGRFTISRENAKNTVYLQMNRLKPEDTAVYYCAAQSFGKRIWSPRYQLNYWGQGTQVTVSS | low polyreactivity
40 | QFQLVESGGGLVPAGGSLRLSCAASGRIFTGNAMGWSRQAPGKERELVASITYSDGSTYYADSVKGRFTISRDNATNTVYLKMNSLKPEDTAVYYCAADIRWGQGTQVTVSS | low polyreactivity
41 | QVQLVESGGGLVQAGGSLRLSCAASGRIFLGYTMGWYRQAPGKERELVAAISKSGDSTYYADSVKGRFTISRDNAKNTVYLQMNSLKPEDTAVYYCAKDYGGRLYYYWGQGTQVTVSS | high polyreactivity
42 | QVQLVESAGGLVQAGGSLRLSCAASGYTFVNYAMGWYRQAPGKERELVAAISRSGGSTYYADSVKGRFTISRDHAKNTVYLQMNSLKPEDTAVYYCAKVVQGDHPYDYWGQGTQVTVSS | high polyreactivity
43 | QVQLVESGGGLVQAGGSLRLSCAASGSTFYANAMGWYRQAPGKDRELVAAITRSGAGTYYADSVKGRFTISRDNAKNTGYLQMNSLKPEDTAVYYCAKRTKTPTGYVWGGYDYWGQGTQVTGSS | high polyreactivity
